Numbering of substitutions follows the chain as printed.
B1: FS17-33-241AA/HELD1.3 (bispecific antibody)
chain 1: QVQLQESGPGLVRPSQTLSLTCTVSGSTFSGYGVNWVRQPPGRGLEWIGMIWGDGNTDYNSALKSRVTMLVDTSKNQFSLRLSSVTAADTAVYYCARERDYRLDYWGQGSLVTVSSASTKGPSVFPLAPSSKSTSGGTAALGCLVKDYFPEPVTVSWNSGALTSGVHTFPAVLQSSGLYSLSSVVTVPSSSLGTQTYICNVNHKPSNTKVDKKVEPKSCDKTHTCPPCPAPEAAGGPSVFLFPPKPKDTLMISRTPEVTCVVVDVSHEDPEVKFNWYVDGVEVHNAKTKPREEQYNSTYRVVSVLTVLHQDWLNGKEYKCKVSNKALPAPIEKTISKAKGQPREPQVYTLPPSRDESGYWVSLTCLVKGFYPSDIAVEWESNGEPQYWAKTTPPVLDSDGSFFLYSKLTVSHWRWQLDDFSCSVMHEALHNHYTQKSLSLSPGK
chain 2: DIQMTQSPASLSASVGETVTITCRASGNIHNYLAWYQQKQGKSPQLLVYNAKTLADGVPSRFSGSGSGTQYSLKINSLQPEDFGSYYCQHFWSTPRTFGGGTKLEIKRTVAAPSVFIFPPSDEQLKSGTASVVCLLNNFYPREAKVQWKVDNALQSGNSQESVTEQDSKDSTYSLSSTLTLSKADYEKHKVYACEVTHQGLSSPVTKSFNRGEC
B2: FS17-33-266AA/HELD1.3 (bispecific antibody)
chain 1: B1 chain 1 with H412N, Q416R
chain 2: B1 chain 2
B3: FS17-33-277AA/HELD1.3 (bispecific antibody)
chain 1: B1 chain 1 with H412N, Q416S
chain 2: B1 chain 2
B4: FS17-33-316AA/HELD1.3 (bispecific antibody)
chain 1: B1 chain 1 with H412N, D419A
chain 2: B1 chain 2
B5: FS17-33-271AA/HELD1.3 (bispecific antibody)
chain 1: B1 chain 1 with H412N, Q416H
chain 2: B1 chain 2
B6: FS17-33-239AA/HELD1.3 (bispecific antibody)
chain 1: B1 chain 1 with H412Q
chain 2: B1 chain 2
B7: Fcab FS17-33-288 with LALA mutation (designed binder)
chain: TCPPCPAPEAAGGPSVFLFPPKPKDTLMISRTPEVTCVVVDVSHEDPEVKFNWYVDGVEVHNAKTKPREEQYNSTYRVVSVLTVLHQDWLNGKEYKCKVSNKALPAPIEKTISKAKGQPREPQVYTLPPSRDESGYWVSLTCLVKGFYPSDIVVEWESNGEPQYWAKTTPPVLDSDGSFFLYSKLTVSNWRWQIDDFSCSVMHEALHNHYTQKSLSLSPGK
B8: Fcab FS17-33-289 with LALA mutation (designed binder)
chain: B7 chain with I194L
B9: Fcab FS17-33-334 with LALA mutation (designed binder)
chain: B7 chain with V153A, I194L
B10: Fcab FS17-33-296 with LALA mutation (designed binder)
chain: B7 chain with I194V
B11: anti-PD-L1 mAb YW243.55.S1 (antibody, V domains shown)
VH: not shown
VL: DIQMTQSPSSLSASVGDRVTITCRASQDVSTAVAWYQQKPGKAPKLLIYSASFLYSGVPSRFSGSGSGTDFTLTISSLQPEDFATYYCQQYLFTPPTFGQGTKVEIKR
B12: FS17-33-289AA/HelD1.3 mock mAb^2 (bispecific antibody, human IgG1, kappa, L234A L235A)
heavy: B1 chain 1 with A376V, H412N
light: B1 chain 2
notes: also called F17-33-289AA/HelD1.3; F17-33-289AA/HELD1.3
B13: FS17-33-449AA/HelD1.3 mock mAb^2 (bispecific antibody, human IgG1, kappa, L234A L235A)
heavy: QVQLQESGPGLVRPSQTLSLTCTVSGSTFSGYGVNWVRQPPGRGLEWIGMIWGDGNTDYNSALKSRVTMLVDTSKNQFSLRLSSVTAADTAVYYCARERDYRLDYWGQGSLVTVSSASTKGPSVFPLAPSSKSTSGGTAALGCLVKDYFPEPVTVSWNSGALTSGVHTFPAVLQSSGLYSLSSVVTVPSSSLGTQTYICNVNHKPSNTKVDKKVEPKSCDKTHTCPPCPAPEAAGGPSVFLFPPKPKDTLMISRTPEVTCVVVDVSHEDPEVKFNWYVDGVEVHNAKTKPREEQYNSTYRVVSVLTVLHQDWLNGKEYKCKVSNKALPAPIEKTISKAKGQPREPQVYTLPPSRDETGYWVSLTCLVKGFYPSDIAVEWESNGEPQYWAKTTPPVLDSDGSFFLYSKLTVSNWRWQLDDVFSCSVMHEALHNHYTQKSLSLSPGK
light: B1 chain 2
B14: FS17-33-296AA/HelD1.3 mock mAb^2 (bispecific antibody, human IgG1, kappa, L234A L235A)
heavy: B1 chain 1 with A376V, H412N, L417V
light: B1 chain 2
notes: also called F17-33-296AA/HelD1.3; F17-33-296AA/HELD1.3
B15: FS17-33-451AA/HelD1.3 mock mAb^2 (bispecific antibody, human IgG1, kappa, L234A L235A)
heavy: B13 heavy with T357E
light: B1 chain 2
notes: also called F17-33-451AA/HelD1.3; F17-33-451AA/HELD1.3
B16: FS17-33-459AA/HELD1.3 (bispecific antibody)
chain 1: B13 heavy with T357S, Q416R
chain 2: B1 chain 2
B17: FS17-33-460AA/HELD1.3 (bispecific antibody)
chain 1: B13 heavy with T357S, Q416H
chain 2: B1 chain 2
B18: FS17-33-462AA/HELD1.3 (bispecific antibody)
chain 1: B13 heavy with T357S, D419A
chain 2: B1 chain 2
B19: FS17-33-456AA/HELD1.3 (bispecific antibody)
chain 1: B13 heavy with T357S, N412A
chain 2: B1 chain 2
B20: FS17-33-453AA/HELD1.3 (bispecific antibody)
chain 1: B13 heavy with T357L
chain 2: B1 chain 2
B21: FS17-33-454AA/HELD1.3 (bispecific antibody)
chain 1: B13 heavy with T357F
chain 2: B1 chain 2
B22: FS17-33-461AA/HELD1.3 (bispecific antibody)
chain 1: B13 heavy with T357S, Q416S
chain 2: B1 chain 2
B23: FS17-33-457AA/HELD1.3 (bispecific antibody)
chain 1: B13 heavy with T357S, N412Q
chain 2: B1 chain 2
B24: FS17-33-455AA/HELD1.3 (bispecific antibody)
chain 1: B13 heavy with T357Y
chain 2: B1 chain 2
B25: FS17-33-458AA/HELD1.3 (bispecific antibody)
chain 1: B13 heavy with T357S, N412H
chain 2: B1 chain 2

The binders below were run against T1, Human PD-L1 expressed on cells (human, UniProt Q9NZQ7 19-290) (assay: cell-based or functional assay).
T1 sequence (Q9NZQ7 19-290 limits assumed): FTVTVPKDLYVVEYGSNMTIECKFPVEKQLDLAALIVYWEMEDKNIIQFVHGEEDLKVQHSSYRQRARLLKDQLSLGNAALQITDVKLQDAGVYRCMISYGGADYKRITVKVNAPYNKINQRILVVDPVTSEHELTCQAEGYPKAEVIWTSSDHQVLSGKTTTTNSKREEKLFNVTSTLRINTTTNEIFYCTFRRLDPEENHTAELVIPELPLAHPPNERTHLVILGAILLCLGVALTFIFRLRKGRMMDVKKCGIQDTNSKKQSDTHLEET

Row | Binder | DO11.10 EC50 [nM]
1 | B1 | 0.304
2 | B2 | 0.434
3 | B3 | 0.319
4 | B4 | 0.563
5 | B5 | 0.254
6 | B6 | 0.588

Target: T1, Human PD-L1 expressed on cells
Assay: cell-based or functional assay
Remark: another data set of the same source

Row | Binder | DO11.10 T cell activation assay EC50 [nM]
7 | B7 | 0.137
8 | B8 | 0.228
9 | B9 | 0.381
10 | B10 | 0.166
11 | B11 | 0.257
12 | B12 | 1.55
13 | B13 | 0.95
14 | B14 | 1.12
15 | B15 | 1.03

The binders below were run against T2, Monomeric His-tagged human PD-L1 (Acro biosystems PD1-H5229) (human, UniProt Q9NZQ7 19-238) (assay: off-rate, binding to hPD-L1, mock mAb^2; instrument not stated).
T2 construct: also called hPD-L1-his; PD-L1-his
T2 sequence (Q9NZQ7 19-238 limits assumed): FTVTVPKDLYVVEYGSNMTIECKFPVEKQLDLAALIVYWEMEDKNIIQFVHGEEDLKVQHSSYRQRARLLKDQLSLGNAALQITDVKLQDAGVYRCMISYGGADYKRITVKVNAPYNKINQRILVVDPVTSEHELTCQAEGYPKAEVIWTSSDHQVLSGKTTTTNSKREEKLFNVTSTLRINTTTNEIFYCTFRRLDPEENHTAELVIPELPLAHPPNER

Row | Binder | koff [s⁻¹]
16 | B13 | 0.000311
17 | B16 | 0.00038
18 | B17 | 0.000202
19 | B18 | 0.000899
20 | B19 | 0.000619
21 | B20 | 0.000303
22 | B21 | 0.000269
23 | B22 | 0.000359
24 | B23 | 0.000589
25 | B24 | 0.000343
26 | B25 | 0.000456
27 | B15 | 0.000253

What follows are binders tested against T2, Monomeric His-tagged human PD-L1 (Acro …) (assay: off-rate on PD-L1, mock mAb^2; instrument not given).

Row | Binder | koff [s⁻¹]
28 | B1 | 0.000592
29 | B2 | 0.000377
30 | B3 | 0.000415
31 | B4 | 0.000566
32 | B5 | 0.000518
33 | B6 | 0.000693

The binders below were run against T1, Human PD-L1 expressed on cells (assay: flow cytometry, HEK293 cells overexpressing the target, anti-human Fc 488).
Procedure: (§1) Cell binding assays were performed by incubating Fcabs or mAb² proteins with either control HEK293 cells or HEK293 cells overexpressing hPD-L1 or cynomolgus PD-L1 cells for 1 hour at 4° C. Fcab/mAb binding was subsequently detected using an anti-human Fc 488 detection antibody. Fluorescent signal intensities were measured using a FACS canto.

Row | Binder | Kd [nM]
34 | B12 | 3.9
35 | B14 | 2.7

Each binder was assayed against T3, Cynomolgus PD-L1 expressed on HEK 293 cells (cynomolgus, UniProt Q9NZQ7 19-290 (human entry)) in the same assay as above.
T3 construct: also called cell-expressed cynomolgus PD-L1
Procedure: as §1

T3 sequence (Q9NZQ7 other isoform, or with tags, fused parts or gaps limits assumed): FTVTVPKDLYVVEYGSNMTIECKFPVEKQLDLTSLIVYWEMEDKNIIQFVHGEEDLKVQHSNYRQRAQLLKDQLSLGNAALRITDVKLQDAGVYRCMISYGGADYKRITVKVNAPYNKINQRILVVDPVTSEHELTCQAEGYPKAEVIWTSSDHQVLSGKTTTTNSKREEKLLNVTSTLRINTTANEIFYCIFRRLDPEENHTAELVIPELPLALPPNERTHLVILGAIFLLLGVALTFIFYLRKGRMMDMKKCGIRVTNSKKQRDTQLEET

Row | Binder | Kd [nM]
36 | B12 | 2.2
37 | B14 | 2

These binders were tested against T2, Monomeric His-tagged human PD-L1 (Acro …) (assay: SPR Biacore T200, mAb^2 captured by anti-Fab on CM5, monomeric antigen in flow, 1:1 fit).

Row | Binder | Kd [nM]
38 | B13 | 0.49
39 | B15 | 0.45

What follows are binders tested against T4, Monomeric cynomolgus PD-L1 (Acro Biosciences PD1-C52H4) (cynomolgus, UniProt Q9NZQ7 19-238 (human entry)) in the same assay as above.
T4 construct: also called cynomolgus monomeric PD-L1
T4 sequence (Q9NZQ7 other isoform, or with tags, fused parts or gaps limits assumed): as the sequence (Q9NZQ7 19-238 limits assumed) above, with A33T, A34S, S62N, R68Q, Q82R, F173L, T185A, T192I, H215L counted along it

Row | Binder | Kd [nM]
40 | B13 | 0.9
41 | B15 | 0.63

Source: patent US20230406935A1 (F STAR THERAPEUTICS, published 2023)
